Consider 2 molecules from PMC4210194, “Cyanobacterial Light-Driven Proton Pump, Gloeobacter Rhodopsin: Complementarity between Rhodopsin-Based Energy Production and Photosynthesis” (PLoS ONE, 2014).

The target of one data set is Asp121 (UniProt position 121, AYRYVDWLLTV). Put plainly: UV-vis. To be noted: 3-mix buffer (starting at pH ca. 12, adjusted downward with HCl); retinal-bound pigment, unphotolysed state; light or dark adaptation not stated.
In data set [1] the target is T1, Gloeobacter rhodopsin (GR, Gloeorhodopsin) (Gloeobacter violaceus, UniProt Q7NP59).
T1 construct: gene gll0198
T1 sequence (Q7NP59 entry or part of it): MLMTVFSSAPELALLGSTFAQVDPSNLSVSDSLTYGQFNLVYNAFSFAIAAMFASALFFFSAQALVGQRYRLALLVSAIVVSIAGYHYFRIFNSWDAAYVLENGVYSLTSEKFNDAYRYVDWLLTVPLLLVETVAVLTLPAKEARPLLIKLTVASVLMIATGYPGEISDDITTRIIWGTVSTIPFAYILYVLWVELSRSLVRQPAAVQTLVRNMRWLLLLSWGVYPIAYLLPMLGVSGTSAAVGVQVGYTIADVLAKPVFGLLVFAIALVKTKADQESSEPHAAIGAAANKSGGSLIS
Put plainly: UV/VIS absorption of purified pigment. It counts as binding. To be noted: covalent (protonated Schiff base, Lys257); 50 mM Tris pH 7, 150 mM NaCl, 0.02% DDM.

For “Gloeobacter rhodopsin (GR, Gloeorhodopsin) (Gloeobacter violaceus PCC 7421)”, the pKa (in general, the pH at which an ionisable group is half protonated) in the data set with Asp121 is 5.9.
Take `CC1=C(/C=C/C(C)=C/C=C/C(C)=C/C=O)C(C)(C)CCC1` [all-trans retinal]: the “UV/VIS absorption of purified pigment” value in data set [1] is “expressed in Escherichia coli and bound all-trans retinal to form a pigment”.
